The values below are quoted from earlier work in article PMC10952613.

This data set deals with EGFR (Homo sapiens) (UniProt P00533).

Where “and” joins values, the source holds several entries; their conditions need not be identical. Equal values may be shown once. Some results are limits rather than exact numbers.

One may read the Kd as a measure of binding affinity in units of concentration. Turning to EGF (from UniProt P01133), the Kd was < 1 nM and > 10 nM.
